From patent US20210188980A1 (SHANGHAI EPIMAB BIOTHERAPEUTICS, published 2021)
Substitutions are numbered along the chain they refer to. In names and notes the source's numbering stands.

T1: recombinant human LAG-3-his protein (Novoprotein) (human, UniProt P18627 23-450)
T1 construct: Bought; also called huLAG-3; not shown: His tag
T1 sequence (looked up): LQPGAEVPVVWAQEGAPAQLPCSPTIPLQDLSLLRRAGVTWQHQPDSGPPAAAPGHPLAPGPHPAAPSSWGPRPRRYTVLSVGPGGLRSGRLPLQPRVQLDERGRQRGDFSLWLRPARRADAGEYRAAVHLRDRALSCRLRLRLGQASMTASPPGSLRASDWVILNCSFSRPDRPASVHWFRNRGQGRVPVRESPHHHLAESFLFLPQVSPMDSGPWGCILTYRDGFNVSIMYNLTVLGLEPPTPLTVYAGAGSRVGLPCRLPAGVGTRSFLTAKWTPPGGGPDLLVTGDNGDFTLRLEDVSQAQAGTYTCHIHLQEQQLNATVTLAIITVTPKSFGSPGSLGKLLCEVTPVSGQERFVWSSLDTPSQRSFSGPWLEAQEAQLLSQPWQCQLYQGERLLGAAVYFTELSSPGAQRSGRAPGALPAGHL

B1: HumAb713-6 (antibody, human IgG1, kappa, L234A L235A, V domains shown)
VH: EVQLVESGGGLVQPGGSLRLSCAASGFTFSDYGMHWVRQAPGKGLEWVSYISSGSYTIYYADTVKGRFTISRDNAKNSLYLQMNSLRDEDTAVYYCAKRGGSSHVNVMDYWGQGTTVTVSS
VL: DIQMTQSPSSLSASVGDRVTITCKASDHINNWLAWYQQKPGKAPKLLIYGATSLETGVPSRFSGSGSGTDYTFTISSLQPEDIATYYCQQYWSPPYTFGGGTKVEIKR
notes: humanized mAb713; also called HurnAb713-6
B2: HumAb713-4 (antibody, human IgG1, kappa, L234A L235A, V domains shown)
VH: B1 VH with F29S, S49A
VL: B1 VL with Y71F
notes: humanized mAb713
B3: HumAb713-16 (antibody, human IgG1, kappa, L234A L235A, V domains shown)
VH: B1 VH with F29S, S49A
VL: B1 VL with Y49S, T69K
notes: humanized mAb713
B4: HumAb713-8 (antibody, human IgG1, kappa, L234A L235A, V domains shown)
VH: B1 VH with F29S, S49A
VL: B1 VL
notes: humanized mAb713; also called HurnAb713-8
B5: HumAb713-13 (antibody, human IgG1, kappa, L234A L235A, V domains shown)
VH: B1 VH with K98R
VL: B1 VL with Y49S, T69K
notes: humanized mAb713
B6: HumAb713-5 (antibody, human IgG1, kappa, L234A L235A, V domains shown)
VH: B1 VH with K98R
VL: B1 VL
notes: humanized mAb713
B7: HumAb713-14 (antibody, human IgG1, kappa, L234A L235A, V domains shown)
VH: B1 VH
VL: B1 VL with Y49S, T69K
notes: humanized mAb713
B8: HumAb713-9 (antibody, human IgG1, kappa, L234A L235A, V domains shown)
VH: B1 VH with K98R
VL: B1 VL with Y49S
notes: humanized mAb713
B9: HumAb713-15 (antibody, human IgG1, kappa, L234A L235A, V domains shown)
VH: B1 VH with F29S
VL: B1 VL with Y49S, T69K
notes: humanized mAb713
B10: HumAb713-2 (antibody, human IgG1, kappa, L234A L235A, V domains shown)
VH: B1 VH
VL: B1 VL with Y71F
notes: humanized mAb713
B11: HumAb713-10 (antibody, human IgG1, kappa, L234A L235A, V domains shown)
VH: B1 VH
VL: B1 VL with Y49S
notes: humanized mAb713
B12: HumAb713-12 (antibody, human IgG1, kappa, L234A L235A, V domains shown)
VH: B1 VH with F29S, S49A
VL: B1 VL with Y49S
notes: humanized mAb713
B13: HumAb709-3 (antibody, human IgG1, kappa, L234A L235A, V domains shown)
VH: EVQLVESGGGLVQPGGSLRLSCAASGFTFSFYTMSWVRQAPGKRLEWVATISGGGRDTYYPDSVKGRFTISRDNAKNSLYLQMNSLRAEDTAVYYCAGQGGNYLFAYWGQGTLVTVSS
VL: DIQMTQSPSSLSASVGDRVTITCKASQDVNTVVAWYQQKPGKAPKLLIYWASTRHTGVPSRFSGSGSGTDYTLTISSLQPEDFATYYCQQHYTTPYTFGGGTKVEIKR
notes: humanized mAb709
B14: HumAb709-4 (antibody, human IgG1, kappa, L234A L235A, V domains shown)
VH: B13 VH with R44G, G98R
VL: B13 VL with Y49S
notes: humanized mAb709
B15: FIT107-1-7b-2 (bispecific antibody, human IgG1, kappa, L234A L235A)
chain 1: not shown
chain 2: EVQLVQSGAEVKKPGATVKLSCTASGFNIKDDYMHWVKQRPEQGLDWIGWIVPRNANTVYASKFQGKATITADTSTNTAYLELSSLRSEDTAVYYCTVYGDYWGQGTTVTVSSASTKGPSVFPLAPSSKSTSGGTAALGCLVKDYFPEPVTVSWNSGALTSGVHTFPAVLQSSGLYSLSSVVTVPSSSLGTQTYICNVNHKPSNTKVDKKVEPKSC
chain 3: not shown
notes: FIT-Ig hexamer; outer anti-LAG-3 (HumAb747V-72 with G55A), inner anti-PD-1 (HumAb713-7)
B16: FIT107-1-7a-1 (bispecific antibody, human IgG1, kappa, L234A L235A)
chain 1: not shown
chain 2: EVQLVESGGGLVQPGGSLRLSCAASGFTSSDYGMHWVRQAPGKGLEWVSYISSGSYTIYYADTVKGRFTISRDNAKNSLYLQMNSLRDEDTAVYYCAKRGGSSHVNVMDYWGQGTTVTVSSASTKGPSVFPLAPSSKSTSGGTAALGCLVKDYFPEPVTVSWNSGALTSGVHTFPAVLQSSGLYSLSSVVTVPSSSLGTQTYICNVNHKPSNTKVDKKVEPKSC
chain 3: DIQMTQSPSSLSASVGDRVTITCRASQEISGYLSWLQQKPGGAIKRLIYAASALDSGVPSRFSGSRSGSDYTLTISSLQPEDFADYYCLQYASYPLTFGQGTKLELKRTVAAPSVFIFPPSDEQLKSGTASVVCLLNNFYPREAKVQWKVDNALQSGNSQESVTEQDSKDSTYSLSSTLTLSKADYEKHKVYACEVTHQGLSSPVTKSFNRGEC
notes: FIT-Ig hexamer; outer anti-PD-1 (HumAb713-7), inner anti-LAG-3 (HumAb747V-67 with G55A)
B17: FIT107-1-7a-3 (bispecific antibody, human IgG1, kappa, L234A L235A)
chain 1: not shown
chain 2: B16 chain 2
chain 3: B16 chain 3 with A53T
notes: FIT-Ig hexamer
B18: FIT107-1-7a-2 (bispecific antibody, human IgG1, kappa, L234A L235A)
chain 1: not shown
chain 2: B16 chain 2
chain 3: B16 chain 3 with S56L
notes: FIT-Ig hexamer; outer anti-PD-1 (HumAb713-7), inner anti-LAG-3 (HumAb747V-72 with G55A)
B19: mAb703c (antibody, V domains shown)
VH: DVQLQESGPGLVKPSQSLSLTCSVTGYSITTGYYWNWIRQFPGNKLEWMGYMSYDGNNNYNPSLKNRISITRDTSKNQFLLRLNSVTTEDTATYFCARDRGTTILGGTMDYWGQGTSVTVS
VL: SIVMTQTPKFLFVSAGDRVTIACKASQSVSNDVAWYQQKPGQSPKLLIYYAFYRYTGVPDRFTGSGYGTDFTFTISTVQAEDLAVYFCQQDYSSPWTFGGGTKLEIK
B20: HumAb703-12 (antibody, human IgG1, kappa, L234A L235A, V domains shown)
VH: EVQLQESGPGLVKPSETLSLTCAVSGYSISTGYYWNWIRQPPGKGLEWIGYMSYDGNNNYNPSLKNRITISRDTSKNQFSLKLSSVTAADTAVYYCARDRGTTILGGTMDYWGQGTTVTVSS
VL: DIQMTQSPSSLSASVGDRVTITCKASQSVSNDVAWYQQKPGKAPKLLIYYAFYRYTGVPDRFSGSGYGTDFTLTISSLQPEDFATYYCQQDYSSPWTFGGGTKVEIKR
notes: humanized mAb703
B21: HumAb703-11 (antibody, human IgG1, kappa, L234A L235A, V domains shown)
VH: B20 VH with I68V
VL: B20 VL
notes: humanized mAb703
B22: HumAb703-13 (antibody, human IgG1, kappa, L234A L235A, V domains shown)
VH: B20 VH with I49M
VL: B20 VL
notes: humanized mAb703
B23: HumAb703-22 (antibody, human IgG1, kappa, L234A L235A, V domains shown)
VH: B20 VH
VL: B20 VL with D1S, Q3V, A43S, S63T, Y87F
notes: humanized mAb703; also called HurnAb703-22
B24: HumAb703-18 (antibody, human IgG1, kappa, L234A L235A, V domains shown)
VH: B20 VH with I49M
VL: B20 VL with A43S, Y87F
notes: humanized mAb703

target: T2, human PD-1 expressed on cells (human, UniProt Q15116 25-288); experiment: cell RBA FACS; competitor PD-L1/Fc
T2 construct: whole, on cells; also called CHO-K1/huPD-1; CHO-K1-hPD-1 cells
T2 sequence (Q15116 25-288): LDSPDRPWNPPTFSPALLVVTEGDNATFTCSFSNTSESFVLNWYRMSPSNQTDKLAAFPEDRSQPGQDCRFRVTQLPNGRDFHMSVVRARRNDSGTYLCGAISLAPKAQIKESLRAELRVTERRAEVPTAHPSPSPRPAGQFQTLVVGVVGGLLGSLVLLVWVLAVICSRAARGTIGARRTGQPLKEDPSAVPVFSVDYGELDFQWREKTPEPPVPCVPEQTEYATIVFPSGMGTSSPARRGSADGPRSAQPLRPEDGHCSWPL

IC50	Binder
1.04 nM	B1
1.06 nM	B2
0.65 nM	B3
1.05 nM	B4
0.7 nM	B5
0.91 nM	B6
0.91 nM	B7
1.2 nM	B8
0.88 nM	B9
1.71 nM	B10
0.8 nM	B11
0.94 nM	B12

target: T2, human PD-1 expressed on cells; experiment: cell RBA FACS; competitor PD-L2/Fc

IC50	Binder
1.46 nM	B1
2.24 nM	B2
1.63 nM	B3
1.91 nM	B4
2.13 nM	B5
2.95 nM	B6
1.45 nM	B7
2 nM	B8
1.65 nM	B9
3.13 nM	B10
1.23 nM	B11
1.59 nM	B12

target: T2, human PD-1 expressed on cells; experiment: cell RBA FACS, CHO-K1-huPD1; competitor biotin-PD-L1/Fc
Procedure: (§1) All 15 humanized antibodies and the chimeric antibody (mAb709c) were characterized by binding ELISA and cell-based RBA. For cell-based RBA, 2×10⁵ cells/well of CHO-K1-huPD1 cells were added to a pre-blocked 96-well round-bottomed plate and after washing, 50 μl antibodies with diluted concentration ranging from 0.064 nM to 200 nM were added to each well. Next, 50 μl of 60 μg/ml biotinylated PD-L1/Fc or biotinylated PD-L2/Fc protein were added. After gentle mixing and incubation at 4° C., the cells were washed and stained by Alexa Fluor™ 488 streptavidin solution (1:1000, ThermoFisher Scientific; Cat. No. S32354). Signals were readout by FACS and curves were fitted by GraphPad software. […] The association and dissociation rate constants, k (M⁻¹ s⁻¹) and koff(s⁻¹), respectively, were determined by making kinetic binding measurements at five different concentrations of human PD-1-His protein at a continuous flow rate of 30 μl/min. The equilibrium dissociation constant KD (M) of the reaction between antibodies and related target proteins was calculated from the kinetic rate constants using the formula KD=koff/kₒₙ. HumAb709-8 had minimal back-mutation(s) while maintaining to the greatest extent the affinity of the parental variable domains on chimeric mAb709c.

IC50	Binder
1.25 nM	B13
0.78 nM	B14

target: T1, recombinant human LAG-3-his protein …; experiment: BLI Octet, FIT-Ig captured, antigen analyte

Kd	koff	kon	Binder
1.41 nM	0.000246 s⁻¹	174000 M⁻¹ s⁻¹	B15
0.732 nM	0.000124 s⁻¹	169000 M⁻¹ s⁻¹	B16
1.47 nM	0.000134 s⁻¹	91000 M⁻¹ s⁻¹	B17
1.22 nM	0.000128 s⁻¹	105000 M⁻¹ s⁻¹	B18

target: T3, human PD-1-His protein (human, UniProt Q15116 25-167, limits assumed); experiment: BLI Octet, FIT-Ig captured, antigen analyte
T3 construct: also called huPD-1; not shown: His tag
T3 sequence (Q15116 25-167 limits assumed): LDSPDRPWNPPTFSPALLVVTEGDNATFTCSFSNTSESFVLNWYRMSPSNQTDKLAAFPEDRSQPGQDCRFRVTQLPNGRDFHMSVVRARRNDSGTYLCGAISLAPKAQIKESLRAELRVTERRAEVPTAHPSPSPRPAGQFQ

Kd	koff	kon	Binder
7.9 nM	0.000827 s⁻¹	105000 M⁻¹ s⁻¹	B15
3.04 nM	0.000538 s⁻¹	177000 M⁻¹ s⁻¹	B16
3.01 nM	0.000628 s⁻¹	208000 M⁻¹ s⁻¹	B17
3.17 nM	0.000526 s⁻¹	166000 M⁻¹ s⁻¹	B18

target: T3, human PD-1-His protein; experiment: SPR Biacore

Kd	koff	kon	Binder
2.68 nM	0.000966 s⁻¹	359000 M⁻¹ s⁻¹	B19
9 nM	0.00159 s⁻¹	177000 M⁻¹ s⁻¹	B20
9.37 nM	0.00176 s⁻¹	187000 M⁻¹ s⁻¹	B21
10.6 nM	0.00154 s⁻¹	145000 M⁻¹ s⁻¹	B22
6.94 nM	0.00159 s⁻¹	229000 M⁻¹ s⁻¹	B23
18.9 nM	0.00124 s⁻¹	65700 M⁻¹ s⁻¹	B24

target: T2, human PD-1 expressed on cells; experiment: cell RBA FACS, CHO-K1-huPD1; competitor biotin-PD-L2/Fc
Procedure: as §1

IC50	Binder
1.64 nM	B13
1.68 nM	B14
